Source: PMC7993378, “Inhibition of bacterial and human zinc-metalloproteases by bisphosphonate- and catechol-containing compounds” (Journal of Enzyme Inhibition and Medicinal Chemistry, 2021)

System: COc1ccc2c(CC(=O)N[C@@H](CCCNC(=N)N)C(=O)N3CCC[C@H]3C(=O)N3CCC[C@H]3C(=O)NCC(=O)N[C@@H](Cc3ccccc3)C(=O)N[C@@H](CO)C(=O)N[C@@H](C)C(=O)N[C@@H](Cc3ccccc3)C(=O)N[C@@H](CCCCNc3ccc([N+](=O)[O-])cc3[N+](=O)[O-])C(=O)O)cc(=O)oc2c1
Test: Km determination of McaRPPGFSAFK(Dnp)-OH with TLN
Format: biochemical, Bacillus thermoproteolyticus
Conditions: other: 2% DMSO; pH 7.5
Procedure: The estimated Km values for ALN and PLN must be regarded as uncertain since the highest substrate concentration used was 10 µM due to quenching. The obtained Km values are very similar to those previously obtained for theses enzymes without DMSO[57] or with a DMSO concentration of 5%[58]. Previously it was reported that TLN is inactivated in most organic cosolvents, but can tolerate up to 10% DMSO to enhance substrate solubility. For TLN, the Km value was also determined with a DMSO concentration of 2%.
Km values were determined for McaPLGL(Dpa)AR-NH2 with APMA-activated recombinant MMP-9 (rMMP-9(A)), trypsin-activated MMP-9 from THP-1 cells (MMP-9(T)) and MMP-14, and for McaRPPGFSAFK(Dnp)-OH with ALN, PLN and TLN. Substrate concentrations used were 1–10 µM in a total volume of 100 µL of 0.1 M Hepes pH 7.5 containing 10 mM CaCl2, 0.005% Brij-35 and 1.0% DMSO. […] Initial rate experiments were performed as described above for the determination of enzyme activity of MMP-9 during activation and the same excitation and emission wavelengths were used for both substrates.

TLN (Bacillus thermoproteolyticus)
Km: 7 ± 1 µM
